Data published in patent US20240101668A1.
Numbering of substitutions follows the chain as printed. Values belong to the binder of their own block, whether it stands above or below them.

Key:
[1] = target: huFLT3-T227 stably expressed on Ramos cells (human) (UniProt P36888); assay: FACS on cells
[2] = target: huFLT3-M227 stably expressed on Ramos cells (human) (UniProt P36888); assay: FACS on cells

- FACS geometric mean fold change over Jurkat parental [1]: < 2 fold
B1: Polypeptide No. 245 (scFv, V domains shown)
VH: QVQLVQSGAEVKKPGSSVKVSCKASGYTFTGFYIHWVRQAPGQGLEWMGGVIPFFSRTIYAQKFQGRVTITADESTSTAYMELSSLRSEDTAVYYCAYGANGHLYGMDAWGQGTTVTVSS
VL: EIVMTQSPATLSVSPGERATLSCRASQSVSSSYLAWYQQKPGQAPRLLIYGASTRATGIPARFSGSGSGTEFTLTISSLQSEDFAVYYCQQYSSSPLTFGQGTKVEIKR

- FACS geometric mean fold change over Jurkat parental [1]: < 2 fold
B2: Polypeptide No. 281 (scFv, V domains shown)
VH: QVQLVQSGAEVKKPGASVKVSCKASGYTFNSYGISWVRQAPGQGLEWMGIINPTGGSTTYAQKFQGRVTMTRDTSTSTVYMELSSLRSEDTAVYYCAKDPFVMDVWGQGTTVTVSS
VL: B1 VL with G51D, T54A, T57A, S93Y, S95T, L97Y, V105L

- FACS geometric mean fold change over Jurkat parental [1]: < 2 fold
B3: Polypeptide No. 250 (scFv, V domains shown)
VH: QVQLVQSGAEVKKPGSSVKVSCKASGYTLTSFAMHWVRQAPGQGLEWMGRIIPMSGTANYAQKFQGRVTITADESTSTAYMELSSLRSEDTAVYYCASTSPDQYYYGMDVWGQGTTVTVSS
VL: B1 VL with S30G, Y33S, S93G, L97Y

- FACS geometric mean fold change over Jurkat parental [1]: < 2 fold
B4: Polypeptide No. 263 (scFv, V domains shown)
VH: QVQLVQSGAEVKKPGSSVKVSCKASGGTFSSYAISWVRQAPGQGLEWMGGIIPIVGVANYAQKLQGRVTITADESTSTAYMELSSLRSEDTAVYYCAKDIGGYPSDAFDIWGQGTTVTVSS
VL: B1 VL with G51D, A52V, S93G, L97I

- FACS geometric mean fold change over Jurkat parental [1]: < 2 fold
B5: Polypeptide No. 268 (scFv, V domains shown)
VH: QVQLVQSGAEVKKPGSSVKVSCKASGGTFSTYALSWVRQAPGQGLEWMGGVIPVFGTTDYAHKFQGRVTITADESTSTAYMELSSLRSEDTAVYYCASMIIFGAGGWDAYYFQEWGQGTLVTVSS
VL: B1 VL with S30N, S31N, S32N, Y33Q, G51D, A52T, T54S, S93D, S94T, L97Y

- FACS geometric mean fold change over Jurkat parental [1]: < 2 fold
B6: Polypeptide No. 286 (scFv, V domains shown)
VH: QVQLVQSGAEVKKPGASVKVSCKASGYTFTSYGISWVRQAPGQGLEWMGWISPNSGVTNYAQKFQGRVTMTRDTSTSTVYMELSSLRSEDTAVYYCVSDDYGAFDYWGQGTLVTVSS
VL: B1 VL with G51D, A52V, T57S, S93N, S94N, S95W, L97Y, V105L

- FACS geometric mean fold change over Jurkat parental [1]: < 2 fold
B7: Polypeptide No. 276 (scFv, V domains shown)
VH: QVQLVQSGAEVKKPGSSVKVSCKASGYTFTRFNIHWVRQAPGQGLEWMGWLNPFTGNTGYARKFQGRVTITADESTSTAYMELSSLRSEDTAVYYCASSSSWYGWFDPWGQGTLVTVSS
VL: EIVMTQSPATLSVSPGERATLSCRASQSVSSYLAWYQQKPGQAPRLLIYDTSTRATGIPARFSGSGSGTEFTLTISSLQSEDFAVYYCQQYHSSPWTFGQGTKVEIKR

- FACS geometric mean fold change over Jurkat parental [1]: < 2 fold
B8: Polypeptide No. 282 (scFv, V domains shown)
VH: QVQLVQSGAEVKKPGASVKVSCKASGGTFSSYAISWVRQAPGQGLEWMGWMNPNSGDTGYAQKFQGRVTMTRDTSTSTVYMELSSLRSEDTAVYYCARDFEGGGWFDPWGQGTLVTVSS
VL: B7 VL with Q27R, V29I, S31D, T51A, T53S, H92Y, S93T, S94T, W96L

- FACS geometric mean fold change over Jurkat parental [1]: < 2 fold
B9: Polypeptide No. 224 (scFv, V domains shown)
VH: QVQLVQSGAEVKKPGSSVKVSCKASGYTFTGYYMHWVRQAPGQGLEWMGVINPIYGTANYALKFQGRVTITADESTSTAYMELSSLRSEDTAVYYCAKAISSGWSNDAFDIWGQGTMVTVSS
VL: EIVMTQSPATLSVSPGERATLSCRASQSVSSDFLAWYQQKPGQAPRLLIYDTSSRASGIPARFSGSGSGTEFTLTISSLQSEDFAVYYCQQYAGPPTFGQGTRLEIKR

- FACS geometric mean fold change over Jurkat parental [1]: < 2 fold
B10: Polypeptide No. 225 (scFv, V domains shown)
VH: QVQLVQSGAEVKKPGSSVKVSCKASGYTLTELSIHWVRQAPGQGLEWMGGIVPMSGTASYAQKFQGRVTITADESTSTAYMELSSLRSEDTAVYYCARRRDGYNSWGQGTLVTVSS
VL: DIVMTQSPDSLAVSLGERATINCKSSQSLLYGSKNYISWYQQKPGQPPKLLIYSSSTRESGVPDRFSGSGSGTDFTLTISSLQAEDVAVYYCQQYYTTPYTFGQGTKVEIKR

- FACS geometric mean fold change over Jurkat parental [2]: < 2 fold
- FACS geometric mean fold change over Jurkat parental [1]: < 2 fold
B11: Polypeptide No. 205 (scFv, V domains shown)
VH: QVQLVQSGAEVKKPGSSVKVSCKASGGSFISHTFSWVRQAPGQGLEWMGGIIPISGTANYAQKFQGRVTITADESTSTAYMELSSLRSEDTAVYYCAKGRGQLVGGYFQHWGQGTLVTVSS
VL: DIVMTQSPLSLPVTPGEPASISCRSSQSLLHSNGYNYLDWYLQKPGQSPQLLIYAASSLQSGVPDRFSGSGSGTDFTLKISRVEAEDVGVYYCMQALQTPLTFGQGTRLEIKR

- FACS geometric mean fold change over Jurkat parental [2]: < 2 fold
B12: Polypeptide No. 220 (scFv, V domains shown)
VH: QVQLVQSGAEVKKPGASVKVSCKASGYTFTGYYMYWVRQAPGQGLEWMGIINPRGGITSYAQRFQGRVTMTRDTSTSTVYMELSSLRSEDTAVYYCARGSTSSGWPNGDMDVWGKGTTVTVSS
VL: DIQMTQSPSSLSASVGDRVTITCRASQGIRNDLGWYQQKPGKAPKLLIYAASSLQSGVPSRFSGSGSGTDFTLTISSLQPEDFATYYCQQANRFPPTFGQGTKVEIKR

- FACS geometric mean fold change over Jurkat parental [2]: < 2 fold
- FACS geometric mean fold change over Jurkat parental [1]: < 2 fold
B13: Polypeptide No. 201 (scFv, V domains shown)
VH: QVQLVQSGAEVKKPGASVKVSCKASGGTFSSDGISWVRQAPGQGLEWMGWISAYHGHTNYAQKFQGRVTMTRDTSTSTVYMELSSLRSEDTAVYYCARGGKHSGSHRSYYYGMDVWGQGTTVTVSS
VL: DIQMTQSPSSLSASVGDRVTITCRASHNIGNKLAWYQQKPGKAPKLLIYGATTLQSGVPSRFSGSGSGTDFTLTISSLQPEDFATYYCQQANSFPRTFGPGTKVDIKR

- FACS geometric mean fold change over Jurkat parental [2]: < 2 fold
- FACS geometric mean fold change over Jurkat parental [1]: < 2 fold
B14: Polypeptide No. 209 (scFv, V domains shown)
VH: EVQLLESGGGLVQPGGSLRLSCAASGFAFSSYVLHWVRQAPGKGLEWVAGIWVDGHNKDYADSVKGRFTISRDNSKNTLYLQMNSLRAEDTAVYYCAREFGAAGSFQHWGQGTLVTVSS
VL: DIQMTQSPSSLSASVGDRVTITCRASQSISTWLAWYQQKPGKAPKLLIYDASKLETGVPSRFSGSGSGTDFTLTISSLQPEDFATYYCQQSYTTPYTFGQGTKVEIKR

- FACS geometric mean fold change over Jurkat parental [1]: < 2 fold
B15: Polypeptide No. 226 (scFv, V domains shown)
VH: QVQLVQSGAEVKKPGASVKVSCKASGYTFTGYYMHWVRQAPGQGLEWMGIIDPSGGSTSYAQKFQGRVTMTRDTSTSTVYMELSSLRSEDTAVYYCARDRSLLWSGVGGMDVWGQGTTVTVSS
VL: B14 VL with S28G, T31N, W32Y, D50G, K53N, E55Q, T56S, T93G, V104L
